Results: patent US20230242640A1 (published 2023)
Residue numbers refer to the chain shown, from its start.

B1: anti-SIRPg antibody A5 (antibody, V domains shown)
VH: EVQLVESGGGVVRPGGSLRLSCAASGFTFDDYGMSWVRQAPGKGLEWVSGINWNGGSTGYADSVKGRFTISRDNAKNSLYLQMNSLRAEDTAVYYCARQMVKLWGQGTLVTVSR
VL: SSELTQDPAVSVALGQTVRITCQGDSLRSYYASWYQQKPGQAPVLVIYGKNNRPSGIPDRFSGSSSGNTASLTITGAQAEDEADYYCNSRDSSGNHVVFGGGTKLTVLR
B2: anti-SIRPg antibody A1 (antibody, V domains shown)
VH: B1 VH with Q99W, M100I, V101A, L103V
VL: B1 VL
B3: anti-SIRPg antibody A8 (antibody, V domains shown)
VH: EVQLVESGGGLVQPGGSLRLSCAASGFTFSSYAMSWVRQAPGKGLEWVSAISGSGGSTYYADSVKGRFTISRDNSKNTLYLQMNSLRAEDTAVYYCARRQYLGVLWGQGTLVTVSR
VL: B1 VL

Biological target: T1, peptide human SIRPgamma VKFRKGSPENVEFKSGPGTEMALGAKPSA-6His
T1 peptide: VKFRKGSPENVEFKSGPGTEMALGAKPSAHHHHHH
Assay: ELISA

| Binder | EC50 [µg/mL] |
| --- | --- |
| B1 | 0.069 |
| B2 | 0.0505 |
| B3 | 0.0258 |

Biological target: T2, recombinant hSIRPg-His (Sino Biologicals reference 11828-H08H) (human, UniProt Q9P1W8 29-360)
T2 chain: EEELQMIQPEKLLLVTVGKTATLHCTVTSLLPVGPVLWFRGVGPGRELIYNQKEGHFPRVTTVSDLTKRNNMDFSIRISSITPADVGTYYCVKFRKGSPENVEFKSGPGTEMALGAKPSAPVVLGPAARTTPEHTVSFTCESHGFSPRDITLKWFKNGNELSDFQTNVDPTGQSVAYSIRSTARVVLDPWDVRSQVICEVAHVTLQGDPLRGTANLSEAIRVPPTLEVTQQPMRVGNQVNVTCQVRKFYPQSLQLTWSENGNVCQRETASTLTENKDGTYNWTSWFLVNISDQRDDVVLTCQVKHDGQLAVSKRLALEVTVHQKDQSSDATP
Assay: competition ELISA with CD47-Fc

| Binder | IC50 [µg/mL] |
| --- | --- |
| B1 | 0.045 |
| B2 | 0.19 |
| B3 | 0.31 |
